This series concerns the molecule itself. In words: non-reducing vs reducing SDS-PAGE of the purified protein, Western blot with HRP-conjugated anti-V5 antibody (self-association / oligomerization). How it is done:
Purified recombinant full-length hC1Q/TNF7 protein expressed in HEK-293 cells was treated as follows: N=non-reduced only; N+H=non-reduced plus heating at 100° C. for 10 min; R=reduced only; and R+H=reduced plus heating at 100° C. for 10 min.
Studies of C1Q and 1C1Q-related proteins, such as adiponectin (Ad), indicate that most of the proteins form trimer, hexamer and higher molecular weight species (Shapiro and Scherer, Curr. Biol. 8:335-338 (1998) herein incorporated by reference in its entirety). To determine the oligomerization status of the hC1Q/TNF7 protein, the HEK293-expressed full-length hC1Q/TNF7 was treated under various conditions: non-reduced only (N); non-reduced plus heating at 100° C. for 10 min (N+H); reduced only (R); and reduced plus heating at 100° C. for 10 min (R+H). […] After heat treatment under non-reducing conditions, hC1Q/TNF7 migrated in 3 major bands: approximately 40, approximately 80, and approximately 160 kDa (Lane 2). In contrast, when hC1Q/TNF7 was treated under reducing conditions with or without heating, it ran as a single band at approximately 40 kDa (Lanes 3 and 4). Similar results were obtained using hC1Q/TNF7-F1 protein and an N-terminal V5His-tagged version of full-length hC1Q/TNF7 (not shown).

The values below come from patent publication US20050180949A1 (NUVELO, published 2005).

B1: full-length hC1Q/TNF7, carboxy-terminal V5His6-tagged, expressed in HEK-293 cells (ligand)
chain: QPRGNQLKGENYSPRYICSIPGLPGPPGPPGANGSPGPHGRIGLPGRDGRDGRKGEKGEKGTAGLRGKTGPLGLAGEKGDQGETGKKGPIGPEGEKGEVGPIGPPGPKGDRGEQGDPGLPGVCRCGSIVLKSAFSVGITTSYPEERLPIIFNKVLFNEGEHYNPATGKFICAFPGIYYFSYDITLANKHLAIGLVHNGQYRIKTFDANTGNHDVASGSTVIYLQPEDEVWLEIFFTDQNGLFSDPGWADSLFSGFLLYVDTDYLDSISEDDEL
notes: The signal peptide cleavage site is only predicted; Oligomer state as told: dimers, tetramers and higher order oligomers; also called HEK293-expressed full-length hC1Q/TNF7; human C1Q/TNF7; not shown: C-terminal V5His6 tag from the pIntron vector
In the case of B1, the binding result is reported as “binds”.
